Results published in publication PMC8881488, “Intricate coupling between the transactivation and basic-leucine zipper domains governs phosphorylation of transcription factor ATF4 by casein kinase 2” (The Journal of Biological Chemistry, 2022).

Target: T1, ATF4-275 (isolated transactivation domain of activating transcription factor 4) (human, UniProt P18848 1-275)
T1 construct: 15N-labelled (expressed in minimal medium) for the NMR titration; also called isolated TAD; ATF4 TAD; not shown: GST, N-terminal, cleaved
T1 sequence (looked up): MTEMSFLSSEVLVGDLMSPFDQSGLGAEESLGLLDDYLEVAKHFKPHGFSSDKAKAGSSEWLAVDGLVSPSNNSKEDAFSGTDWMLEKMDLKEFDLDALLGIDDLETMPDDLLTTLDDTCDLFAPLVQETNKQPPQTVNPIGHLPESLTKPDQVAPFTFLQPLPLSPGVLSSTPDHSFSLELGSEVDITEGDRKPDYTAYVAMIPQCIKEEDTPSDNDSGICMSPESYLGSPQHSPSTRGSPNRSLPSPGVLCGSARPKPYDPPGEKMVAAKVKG
Test: NMR titration; 15N-labeled ATF4-275 titrated with increasing concentrations of unlabeled ATF4-bZip; 2D 1H-15N TROSY-HSQC, amide crosspeak intensity ratios; NMR samples in 20 mM MES pH 6.5, 50 mM NaCl
Settings: both partners purified

binding result: binds
B1: ATF4-bZip (isolated basic-leucine zipper domain of activating transcription factor 4) (domain or fragment, human, UniProt P18848 276-351, looked up)
chain: EKLDKKLKKMEQNKTAATRYRQKKRAEQEALTGECKELEKKNEALKERADSLAKEIQYLKDLIEEVRKARGKKRVP
notes: The limits 276-351 are those printed for the bZip domain; also called bZip domain; isolated bZip domain; source: E. coli BL21(DE3), purified (Glutathione-Sepharose, TEV cleavage, Superdex 200 gel filtration); not shown: GST, N-terminal, cleaved
